The source of these data is publication doi:10.1101/2023.06.21.545551 (2023).

This experiment addresses MYC(303–351) (human). Nature of the experiment: NMR; printed fit value 1205 uM in parentheses.

B1: MYC(1–88) (domain or fragment)
chain: MPLNVSFTNRNYDLDYDSVQPYFYCDEEENFYQQQQQSELQPPAPSEDIWKKFELLPTPPLSPSRRSGLCSPSYVAVTPFSLRGDNDG
With B1, the dissociation constant Kd – broadly, the equilibrium constant for the complex coming apart – was greater than 1000 µM.
